Data: the Human Domainome abundance scans (Beltran et al. 2025)
± gives the uncertainty stated by the source.

Experiment: abundance fitness (aPCA) (normalised: wild type 0, dead -1); higher = more abundant; growth selection in yeast, the domain comes from the species named
Details: Homo sapiens

Substance	abundance fitness
NEDD4-like E3 ubiquitin-protein ligase WWP2 P447S, O00308	-0.332 ± 0.046
NEDD4-like E3 ubiquitin-protein ligase WWP2 P447T, O00308	-0.541 ± 0.067
NEDD4-like E3 ubiquitin-protein ligase WWP2 P447V, O00308	-0.633 ± 0.04
NEDD4-like E3 ubiquitin-protein ligase WWP2 P447W, O00308	-0.659 ± 0.07
NEDD4-like E3 ubiquitin-protein ligase WWP2 P447Y, O00308	-0.5 ± 0.081
NEDD4-like E3 ubiquitin-protein ligase WWP2 P448A, O00308	0.008 ± 0.044
NEDD4-like E3 ubiquitin-protein ligase WWP2 P448C, O00308	-0.216 ± 0.074
NEDD4-like E3 ubiquitin-protein ligase WWP2 P448D, O00308	0.09 ± 0.059
NEDD4-like E3 ubiquitin-protein ligase WWP2 P448E, O00308	0.045 ± 0.062
NEDD4-like E3 ubiquitin-protein ligase WWP2 P448F, O00308	0.015 ± 0.04
NEDD4-like E3 ubiquitin-protein ligase WWP2 P448G, O00308	-0.046 ± 0.054
NEDD4-like E3 ubiquitin-protein ligase WWP2 P448H, O00308	0.043 ± 0.046
NEDD4-like E3 ubiquitin-protein ligase WWP2 P448I, O00308	-0.13 ± 0.071
NEDD4-like E3 ubiquitin-protein ligase WWP2 P448K, O00308	0.108 ± 0.067
NEDD4-like E3 ubiquitin-protein ligase WWP2 P448L, O00308	-0.013 ± 0.038
NEDD4-like E3 ubiquitin-protein ligase WWP2 P448M, O00308	0.088 ± 0.068
NEDD4-like E3 ubiquitin-protein ligase WWP2 P448N, O00308	0.071 ± 0.072
NEDD4-like E3 ubiquitin-protein ligase WWP2 P448Q, O00308	0.029 ± 0.054
NEDD4-like E3 ubiquitin-protein ligase WWP2 P448R, O00308	-0.033 ± 0.047
NEDD4-like E3 ubiquitin-protein ligase WWP2 P448S, O00308	-0.001 ± 0.037
NEDD4-like E3 ubiquitin-protein ligase WWP2 P448T, O00308	0.001 ± 0.05
NEDD4-like E3 ubiquitin-protein ligase WWP2 P448V, O00308	0.023 ± 0.055

Substance	abundance fitness
NEDD4-like E3 ubiquitin-protein ligase WWP2 P448W, O00308	-0.109 ± 0.062
NEDD4-like E3 ubiquitin-protein ligase WWP2 P448Y, O00308	-0.149 ± 0.056
NEDD4-like E3 ubiquitin-protein ligase WWP2 P475A, O00308	-0.837 ± 0.037
NEDD4-like E3 ubiquitin-protein ligase WWP2 P475C, O00308	-1.06 ± 0.16
NEDD4-like E3 ubiquitin-protein ligase WWP2 P475D, O00308	-0.867 ± 0.14
NEDD4-like E3 ubiquitin-protein ligase WWP2 P475E, O00308	-0.785 ± 0.15
NEDD4-like E3 ubiquitin-protein ligase WWP2 P475F, O00308	-0.88 ± 0.1
NEDD4-like E3 ubiquitin-protein ligase WWP2 P475G, O00308	-1 ± 0.042
NEDD4-like E3 ubiquitin-protein ligase WWP2 P475H, O00308	-0.813 ± 0.15
NEDD4-like E3 ubiquitin-protein ligase WWP2 P475I, O00308	-0.523 ± 0.11
NEDD4-like E3 ubiquitin-protein ligase WWP2 P475K, O00308	-1.24 ± 0.27
NEDD4-like E3 ubiquitin-protein ligase WWP2 P475L, O00308	-0.876 ± 0.04
NEDD4-like E3 ubiquitin-protein ligase WWP2 P475M, O00308	-0.574 ± 0.062
NEDD4-like E3 ubiquitin-protein ligase WWP2 P475N, O00308	-0.941 ± 0.13
NEDD4-like E3 ubiquitin-protein ligase WWP2 P475Q, O00308	-0.836 ± 0.11
NEDD4-like E3 ubiquitin-protein ligase WWP2 P475R, O00308	-0.933 ± 0.041
NEDD4-like E3 ubiquitin-protein ligase WWP2 P475S, O00308	-0.852 ± 0.054
NEDD4-like E3 ubiquitin-protein ligase WWP2 P475T, O00308	-1.36 ± 0.2
NEDD4-like E3 ubiquitin-protein ligase WWP2 P475V, O00308	-0.631 ± 0.038
NEDD4-like E3 ubiquitin-protein ligase WWP2 P475W, O00308	-0.829 ± 0.067
NEDD4-like E3 ubiquitin-protein ligase WWP2 P475Y, O00308	-0.984 ± 0.15
NEDD4-like E3 ubiquitin-protein ligase WWP2 P477A, O00308	0.076 ± 0.052

Substance	abundance fitness
NEDD4-like E3 ubiquitin-protein ligase WWP2 P477C, O00308	-0.084 ± 0.066
NEDD4-like E3 ubiquitin-protein ligase WWP2 P477D, O00308	-0.009 ± 0.059
NEDD4-like E3 ubiquitin-protein ligase WWP2 P477E, O00308	0.001 ± 0.05
NEDD4-like E3 ubiquitin-protein ligase WWP2 P477F, O00308	-0.091 ± 0.073
NEDD4-like E3 ubiquitin-protein ligase WWP2 P477G, O00308	-0.019 ± 0.031
NEDD4-like E3 ubiquitin-protein ligase WWP2 P477I, O00308	0.13 ± 0.075
NEDD4-like E3 ubiquitin-protein ligase WWP2 P477K, O00308	-0.037 ± 0.052
NEDD4-like E3 ubiquitin-protein ligase WWP2 P477L, O00308	-0.038 ± 0.034
NEDD4-like E3 ubiquitin-protein ligase WWP2 P477M, O00308	-0.011 ± 0.05
NEDD4-like E3 ubiquitin-protein ligase WWP2 P477N, O00308	-0.081 ± 0.053
NEDD4-like E3 ubiquitin-protein ligase WWP2 P477Q, O00308	-0.394 ± 0.1
NEDD4-like E3 ubiquitin-protein ligase WWP2 P477S, O00308	-0.02 ± 0.037
NEDD4-like E3 ubiquitin-protein ligase WWP2 P477T, O00308	-0.215 ± 0.068
NEDD4-like E3 ubiquitin-protein ligase WWP2 P477V, O00308	0.037 ± 0.034
NEDD4-like E3 ubiquitin-protein ligase WWP2 P477W, O00308	-0.138 ± 0.048
NEDD4-like E3 ubiquitin-protein ligase WWP2 P477Y, O00308	-0.145 ± 0.063
NEDD4-like E3 ubiquitin-protein ligase WWP2 P488A, O00308	-0.31 ± 0.037
NEDD4-like E3 ubiquitin-protein ligase WWP2 P488C, O00308	-0.049 ± 0.058
NEDD4-like E3 ubiquitin-protein ligase WWP2 P488D, O00308	0.033 ± 0.053
NEDD4-like E3 ubiquitin-protein ligase WWP2 P488E, O00308	0.018 ± 0.055
NEDD4-like E3 ubiquitin-protein ligase WWP2 P488F, O00308	-0.127 ± 0.064
NEDD4-like E3 ubiquitin-protein ligase WWP2 P488G, O00308	-0.032 ± 0.04

Substance	abundance fitness
NEDD4-like E3 ubiquitin-protein ligase WWP2 P488H, O00308	0.024 ± 0.062
NEDD4-like E3 ubiquitin-protein ligase WWP2 P488I, O00308	-0.163 ± 0.069
NEDD4-like E3 ubiquitin-protein ligase WWP2 P488K, O00308	-0.04 ± 0.053
NEDD4-like E3 ubiquitin-protein ligase WWP2 P488L, O00308	-0.063 ± 0.038
NEDD4-like E3 ubiquitin-protein ligase WWP2 P488M, O00308	-0.018 ± 0.057
NEDD4-like E3 ubiquitin-protein ligase WWP2 P488N, O00308	0.021 ± 0.051
NEDD4-like E3 ubiquitin-protein ligase WWP2 P488Q, O00308	-0.028 ± 0.033
NEDD4-like E3 ubiquitin-protein ligase WWP2 P488T, O00308	-0.044 ± 0.048
NEDD4-like E3 ubiquitin-protein ligase WWP2 P488V, O00308	-0.037 ± 0.042
NEDD4-like E3 ubiquitin-protein ligase WWP2 P488W, O00308	-0.144 ± 0.048
NEDD4-like E3 ubiquitin-protein ligase WWP2 P488Y, O00308	-0.066 ± 0.043
NEDD4-like E3 ubiquitin-protein ligase WWP2 Q442A, O00308	-0.07 ± 0.035
NEDD4-like E3 ubiquitin-protein ligase WWP2 Q442C, O00308	0.121 ± 0.079
NEDD4-like E3 ubiquitin-protein ligase WWP2 Q442D, O00308	0.079 ± 0.066
NEDD4-like E3 ubiquitin-protein ligase WWP2 Q442E, O00308	0.069 ± 0.04
NEDD4-like E3 ubiquitin-protein ligase WWP2 Q442F, O00308	0.128 ± 0.059
NEDD4-like E3 ubiquitin-protein ligase WWP2 Q442G, O00308	-0.071 ± 0.052
NEDD4-like E3 ubiquitin-protein ligase WWP2 Q442H, O00308	-0.108 ± 0.086
NEDD4-like E3 ubiquitin-protein ligase WWP2 Q442K, O00308	0.195 ± 0.069
NEDD4-like E3 ubiquitin-protein ligase WWP2 Q442L, O00308	-0.058 ± 0.045
NEDD4-like E3 ubiquitin-protein ligase WWP2 Q442M, O00308	0.038 ± 0.078
NEDD4-like E3 ubiquitin-protein ligase WWP2 Q442N, O00308	0.097 ± 0.086
